From patent US7919580B2, “Polysaccharide-protein binding model and nano-fibril formation of a starch binding domain” (priority 2008, dated 2011)

Legend:
[1] = target: T1, RoGACBM21 (Rhizopus oryzae, UniProt P07683); conditions: reported binding assay results; read-out: Kd (binding affinity) of soluble ligand with RoGACBM21; cited from earlier work
T1 construct: the recombinant SBD of 108 amino acid residues; 6xHis (C); made in house; host or cells: E. coli BL21-Gold (DE3), pET23a(+)

[2] = Thioflavin T fluorescence (ThT) assay for fibril formation; format: physicochemical; conditions: SBD sample heated at 97° C.
Method: Purified SBDs or synthetic peptides were dissolved in 10 mM sodium-citrate or phosphate-citrate buffer to a final concentration of 100 μM (at indicated pH). […] The measurements were recorded in a Perkin Elmer LS-55 spectrofluorometer at 25° C.
The relative fluorescence, peaked at 482 nm, subtracted from the background of buffer from the total fluorescence were measured as the amount of fibrillar aggregates with the excitation wavelength (slit width=4 nm) set at 450 nm and monitoring emission wavelength (slit width=8 nm) set at from 470 to 630 nm.

[3] = Fluorescence spectrophotometry of binding to βCD; conditions: intrinsic protein fluorescence, 50 mM sodium acetate pH 5.5, 25° C.; read-out: β-cyclodextrin Kd
Method: Fluorescence spectrophotometry of the binding of wild-type or mutant RoGACBM21 to βCD was recorded by measuring changes in the intrinsic protein fluorescence intensity. Experiments were performed in 50 mM sodium acetate, pH 5.5, at 25° C. using a PerkinElmer LS-55 spectrophotometer. Circular and linear carbohydrates (2 to 20 mM) were titrated into RoGACBM21 (1 μM, 2 mL), and the fluorescence-emission spectrum was monitored at 350 nm with a fixed excitation at 280 nm. The relative changes in fluorescence intensity were plotted against ligand concentration, and the data were fitted to a simulated curve using the appropriate equation for a single binding site.

[4] = starch; fold higher than AnGACBM20; cited from earlier work
[5] = Sedimentation velocity ultracentrifugation; format: physicochemical
Method: The sedimentation velocity studies were performed at 50,000 rpm for 30 μM (solid line) and 60 μM (dotted line) SBD, and absorbance scans were recorded at 280 nm.

[6] = Circular dichroism spectroscopy and thermal unfolding; format: physicochemical; conditions: far-UV CD at 215 nm; for β-sheet signals upon heating: ascending temperature
Method: (A) CD spectra were collected from 200 to 260 nm at 25° C. at a concentration of 50 μM in 10 mM sodium acetate buffer (pH 4.5). (B) Thermal unfolding of SBD was measured by monitoring changes in the far-UV CD spectra at 215 nm. (C) CD spectra of SBD were recorded between 200 and 260 nm at various temperatures
CD spectra and thermostabilities were recorded in a 0.1-cm cuvette using an Aviv model 202 CD Spectrometer. Data collection and calculation were carried out as previously described.

[7] = Starch binding isotherm (saturation binding assay); conditions: insoluble starch, 50 mM sodium acetate pH 5.5, 25° C., 16 h
Method: The starch binding isotherm was analyzed as a saturation binding assay as reported. Wild-type and mutant RoGACBM21 derivatives (100 μL, in 50 mM sodium acetate, pH 5.5) were mixed with 0.1 mg of prewashed insoluble starch and incubated at 25° C. with gentle stirring for 16 h. After centrifugation at 16,000×g for 10 min at 4° C., the protein concentration of the supernatant (unbound protein) was determined by BCA assay, and the amount of bound protein was calculated from the difference between the initial and unbound protein concentrations. The Kd and Bmax values were determined by fitting to the non-linear regression of the binding isotherms using a standard single-site binding model.

OC[C@H]1O[C@@H]2O[C@H]3[C@H](O)[C@@H](O)[C@@H](O[C@H]4[C@H](O)[C@@H](O)[C@@H](O[C@H]5[C@H](O)[C@@H](O)[C@@H](O[C@H]6[C@H](O)[C@@H](O)[C@@H](O[C@H]7[C@H](O)[C@@H](O)[C@@H](O[C@H]8[C@H](O)[C@@H](O)[C@@H](O[C@H]1[C@H](O)[C@H]2O)O[C@@H]8CO)O[C@@H]7CO)O[C@@H]6CO)O[C@@H]5CO)O[C@@H]4CO)O[C@@H]3CO [βCD, β-cyclodextrin]
Kd [1]: ~5 µM

maltoheptaose [G7]
Kd [1]: ~5 µM

B1: WT: recombinant starch-binding domain (family 21 carbohydrate binding module) of Rhizopus oryzae glucoamylase, 108 amino acid residues (protein, listed as Rhizopus oryzae)
chain: ASIPSSASVQLDSYNYDGSTFSGKIYVKNIAYSKKVTVVYADGSDNWNNNGNIIAASFSGPISGSNYEYWTFSASVKGIKEFYIKYEVSGKTYYDNNNSANYQVSTSK
modifications: DOMAIN (1)..(108)
increase in ThT fluorescence emission intensity at 482 nm [2]: 9 fold
Kd [3]: 5.1 ± 0.7 µM
maximal amount of bound protein (Bmax) relative to AnGACBM20 [4]: 40-70 fold
s20 (sedimentation coefficient) ([5]; 30 μM, 50,000 rpm): 1.3 S
oligomeric state in solution ([5]; high concentration (60 μM)): oligomeric forms of SBD appeared
oligomeric state in solution ([5]; low concentration (30 μM)): mainly as a single monomeric species
apparent temperature for unfolding [6]: approximately 65 °C
Kd [7]: 1.4 ± 0.1 µM
Starch Bmax [7]: 41.1 ± 1.1 µmol/g

B2: SBD (K108R): SBD mutant K108R (protein)
chain: ASIPSSASVQLDSYNYDGSTFSGKIYVKNIAYSKKVTVVYADGSDNWNNNGNIIAASFSGPISGSNYEYWTFSASVKGIKEFYIKYEVSGKTYYDNNNSANYQVSTSR
modifications: Modified SBD.
β-sheet signals upon heating [6]: still showed strong β-sheet signals upon heating

B3: SBD (K108H): SBD mutant K108H (protein)
chain: ASIPSSASVQLDSYNYDGSTFSGKIYVKNIAYSKKVTVVYADGSDNWNNNGNIIAASFSGPISGSNYEYWTFSASVKGIKEFYIKYEVSGKTYYDNNNSANYQVSTSH
modifications: Modified SBD.
β-sheet signals upon heating [6]: still showed strong β-sheet signals upon heating

B4: SBD (K108D): SBD mutant K108D (protein)
chain: ASIPSSASVQLDSYNYDGSTFSGKIYVKNIAYSKKVTVVYADGSDNWNNNGNIIAASFSGPISGSNYEYWTFSASVKGIKEFYIKYEVSGKTYYDNNNSANYQVSTSD
modifications: Modified SBD.
β-sheet signals upon heating [6]: diminished the β-sheet signals upon heating
